Values quoted from earlier work in US20110110932A1, “COMBINATION TREATMENT FOR OCULAR DISEASES” (OPHTHOTECH CORP., priority 2009, published 2011).
Read-outs that look alike come from different tables or passages of the source.

Key:
[1] = test system: choroidal neovascularization (CNV); conditions: rabbits, CNV induced by VEGF/bFGF pellets
α5β1 integrin = α5β1 integrin (Homo sapiens, UniProt P05556+P08648)
[2] = test system: choroidal neovascularization (CNV); conditions: cynomolgus monkeys, laser induced CNV

α5β1 integrin, sequence (P08648 42-894 limits assumed): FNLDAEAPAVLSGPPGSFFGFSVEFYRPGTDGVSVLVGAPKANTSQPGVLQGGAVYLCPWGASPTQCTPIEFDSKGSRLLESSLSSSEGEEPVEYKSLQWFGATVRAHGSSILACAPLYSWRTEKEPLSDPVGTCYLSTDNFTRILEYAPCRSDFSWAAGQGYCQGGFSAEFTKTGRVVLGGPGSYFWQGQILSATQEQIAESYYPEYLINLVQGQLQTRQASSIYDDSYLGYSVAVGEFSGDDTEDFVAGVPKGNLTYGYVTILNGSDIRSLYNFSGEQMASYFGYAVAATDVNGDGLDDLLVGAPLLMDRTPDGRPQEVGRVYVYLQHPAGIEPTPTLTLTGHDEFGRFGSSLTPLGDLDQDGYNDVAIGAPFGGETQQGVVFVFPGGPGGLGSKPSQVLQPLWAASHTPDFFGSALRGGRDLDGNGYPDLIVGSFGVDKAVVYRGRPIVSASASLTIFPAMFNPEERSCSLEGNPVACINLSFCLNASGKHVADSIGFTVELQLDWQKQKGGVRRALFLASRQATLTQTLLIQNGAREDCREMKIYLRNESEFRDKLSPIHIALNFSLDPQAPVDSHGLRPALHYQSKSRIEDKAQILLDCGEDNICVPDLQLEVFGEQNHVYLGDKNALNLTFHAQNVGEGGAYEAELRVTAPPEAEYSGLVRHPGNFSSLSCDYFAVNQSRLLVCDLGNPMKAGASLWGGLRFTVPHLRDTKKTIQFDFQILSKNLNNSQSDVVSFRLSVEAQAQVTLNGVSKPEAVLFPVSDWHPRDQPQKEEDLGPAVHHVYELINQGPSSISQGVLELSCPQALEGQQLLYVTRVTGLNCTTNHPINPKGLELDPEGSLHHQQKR
α5β1 integrin, sequence (P08648 895-1049 limits assumed): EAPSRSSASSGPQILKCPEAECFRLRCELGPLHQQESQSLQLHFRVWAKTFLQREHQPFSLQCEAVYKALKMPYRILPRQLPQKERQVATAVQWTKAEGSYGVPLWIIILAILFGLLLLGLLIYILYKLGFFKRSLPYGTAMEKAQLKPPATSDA
α5β1 integrin, sequence (P05556 21-798): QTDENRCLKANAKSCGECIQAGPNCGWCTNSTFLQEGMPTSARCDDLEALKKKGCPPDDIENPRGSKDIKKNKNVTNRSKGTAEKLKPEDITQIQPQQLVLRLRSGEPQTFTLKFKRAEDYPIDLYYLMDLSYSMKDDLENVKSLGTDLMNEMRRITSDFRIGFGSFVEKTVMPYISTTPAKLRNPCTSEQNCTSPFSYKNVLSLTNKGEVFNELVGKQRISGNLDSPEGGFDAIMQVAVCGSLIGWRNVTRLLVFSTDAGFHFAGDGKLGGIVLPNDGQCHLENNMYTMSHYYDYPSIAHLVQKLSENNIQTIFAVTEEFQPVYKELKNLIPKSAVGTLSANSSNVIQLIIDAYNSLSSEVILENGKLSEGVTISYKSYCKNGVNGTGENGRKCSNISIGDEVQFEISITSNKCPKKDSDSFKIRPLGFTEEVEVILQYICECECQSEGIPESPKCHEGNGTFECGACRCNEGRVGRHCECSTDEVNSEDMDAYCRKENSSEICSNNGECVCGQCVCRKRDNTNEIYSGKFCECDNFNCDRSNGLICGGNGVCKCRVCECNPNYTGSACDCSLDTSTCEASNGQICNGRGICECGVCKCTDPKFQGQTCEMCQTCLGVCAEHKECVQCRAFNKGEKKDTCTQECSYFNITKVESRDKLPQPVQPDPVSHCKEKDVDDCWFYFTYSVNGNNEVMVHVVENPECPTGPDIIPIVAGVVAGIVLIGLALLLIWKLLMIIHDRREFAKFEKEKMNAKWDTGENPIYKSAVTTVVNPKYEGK

B1: F200: Fab fragment of volociximab; heavy chain SEQ ID NO: 6, light chain same as M200 (antibody, chains of the INN, looked up, V domains shown)
VH: QVQLKESGPGLVAPSQSLSITCTISGFSLTDYGVHWVRQPPGKGLEWLVVIWSDGSSTYNSALKSRMTIRKDNSKSQVFLIMNSLQTDDSAMYYCARHGTYYGMTTTGDALDYWGQGTSVTVSS
VL: QIVLTQSPAIMSASLGERVTMTCTASSSVSSNYLHWYQQKPGSAPNLWIYSTSNLASGVPARFSGSGSGTSYSLTISSMEAEDAATYYCHQYLRSPPTFGGGTKLEIK
modifications: Fab
anti-angiogenic activity [1]: significant anti-angiogenic activity | α5β1 integrin antagonistic activity (α5β1 integrin): shown to have α5β1 integrin antagonistic activity | anti-angiogenic activity [2]: significant anti-angiogenic activity
